Experiment [1] has as its target T1, mitogen-activated protein kinase-activated protein kinase 2 (human MK2) (human, UniProt P49137 46-400). Put plainly: kinase inhibition, radiometric assay.
The target in experiment [2] is T1, mitogen-activated protein …. Put plainly: kinase inhibition, radiometric assay. The source holds these as a separate data set.

Where two headings read alike, the source gives them in different places.

T1 sequence (P49137 46-400): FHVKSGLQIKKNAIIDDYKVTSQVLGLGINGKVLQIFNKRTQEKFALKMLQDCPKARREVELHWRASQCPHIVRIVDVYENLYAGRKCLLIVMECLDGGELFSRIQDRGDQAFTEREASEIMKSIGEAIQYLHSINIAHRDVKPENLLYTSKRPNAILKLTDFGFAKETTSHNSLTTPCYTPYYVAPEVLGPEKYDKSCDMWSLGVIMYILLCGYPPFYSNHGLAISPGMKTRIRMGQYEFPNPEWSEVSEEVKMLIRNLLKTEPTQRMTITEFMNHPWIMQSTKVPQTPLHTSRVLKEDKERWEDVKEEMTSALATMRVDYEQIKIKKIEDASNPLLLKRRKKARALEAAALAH

YARAAARQARA: the IC50 – broadly, the concentration needed to halve the response being measured – in experiment [1] was > 1000 µM.

KKKALNRQLGVAA returned an IC50 in experiment [1] of 31.2 µM.

With KAFAKLAARLYRKALARQLGVAA, in experiment [2], the IC50 worked out at 4.43 µM. In other words, the single-digit micromolar range.

These data come from US20100158968A1 (published 2010).
